Results published in patent US20170073382 (Nomadogen Biotechnologies Inc., published 2017).

Molecular target: T1, synthetic TAL effector (RVG-LAMP-2B-NLS-TALE) (Artificial Sequence, UniProt P14727 SEQ:1-766)
T1 chain: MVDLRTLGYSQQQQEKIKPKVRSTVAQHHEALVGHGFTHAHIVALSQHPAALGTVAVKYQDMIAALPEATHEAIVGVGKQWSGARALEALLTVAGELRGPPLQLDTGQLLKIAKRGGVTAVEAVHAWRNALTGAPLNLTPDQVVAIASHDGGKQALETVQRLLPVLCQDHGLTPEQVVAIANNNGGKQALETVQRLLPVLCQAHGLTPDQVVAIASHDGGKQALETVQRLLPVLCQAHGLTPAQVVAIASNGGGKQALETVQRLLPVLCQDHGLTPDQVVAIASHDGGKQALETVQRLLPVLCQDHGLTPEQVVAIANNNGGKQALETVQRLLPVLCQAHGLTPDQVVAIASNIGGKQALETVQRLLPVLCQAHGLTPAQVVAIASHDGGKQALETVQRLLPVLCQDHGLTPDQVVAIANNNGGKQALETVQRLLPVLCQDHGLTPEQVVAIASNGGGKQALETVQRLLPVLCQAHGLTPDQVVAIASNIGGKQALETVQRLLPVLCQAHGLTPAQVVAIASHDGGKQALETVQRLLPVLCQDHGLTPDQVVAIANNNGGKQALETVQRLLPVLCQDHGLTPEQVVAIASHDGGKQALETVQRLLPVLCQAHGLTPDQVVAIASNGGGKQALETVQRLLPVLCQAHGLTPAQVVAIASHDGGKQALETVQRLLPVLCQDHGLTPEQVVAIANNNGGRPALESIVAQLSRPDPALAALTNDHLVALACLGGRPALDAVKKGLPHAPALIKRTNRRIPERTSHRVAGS
Assay: cell_activity
Conditions: tags: fusion to C-terminus of RVG-LAMP-2B-NLS, expressed from pcDNA3.0 in HEK-293

B1: gfaABC1D-NeuroD1 plasmid with TAL effector binding site (dsDNA)
DNA 1: TCGCTCGACGTACGCTCG
DNA 2: CGAGCGTACGTCGAGCGA
binding signal: 3 fold
